These results are taken from publication PMC8100066, “PIM-induced phosphorylation of Notch3 promotes breast cancer tumorigenicity in a CSL-independent fashion” (The Journal of Biological Chemistry, 2021).

The target in the experiment is T1, mouse CSL (amino acid residues 53-474), conserved and structurally ordered core domain (mouse, UniProt P31266 53-474).
T1 construct: The SMT3 tag was cut off with ubiquitin-like protease and separated by ion exchange; also called RBPJ; mCSL
Put plainly: ITC; CSL in the cell at 10 μM, RAM peptides in the syringe at 100 μM; 20 °C; 50 mM sodium phosphate, 150 mM sodium chloride; triplicate, 20 injections of 14 μl. The conditions noted are these: both partners purified.

T1 sequence (P31266 53-474): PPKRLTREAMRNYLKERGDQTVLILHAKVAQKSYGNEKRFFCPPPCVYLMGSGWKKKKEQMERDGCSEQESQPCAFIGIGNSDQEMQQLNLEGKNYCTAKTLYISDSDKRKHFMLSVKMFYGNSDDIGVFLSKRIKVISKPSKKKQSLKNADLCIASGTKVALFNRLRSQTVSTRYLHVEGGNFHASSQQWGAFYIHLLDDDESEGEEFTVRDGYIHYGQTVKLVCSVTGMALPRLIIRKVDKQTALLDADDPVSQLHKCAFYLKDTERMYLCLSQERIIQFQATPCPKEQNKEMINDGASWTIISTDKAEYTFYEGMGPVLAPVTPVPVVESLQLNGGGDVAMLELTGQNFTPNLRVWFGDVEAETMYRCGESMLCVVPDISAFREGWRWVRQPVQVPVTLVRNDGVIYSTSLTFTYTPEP

B1: human NOTCH1 RAM peptide (residues 1754-1781) (peptide)
peptide: VLLSRKRRRQHGQLWFPEGFKVSEASKK
notes: NOTCH1, human, RAM domain, residues 1754-1781; also called N1RAM; source: synthetic peptide (Peptide2.0, 95% purity)
The molecule B1 came in with a Kd of 22 nM.

As usually defined, the Kd is the equilibrium constant for the complex coming apart. A higher Kd goes with a looser complex.
